± gives the standard deviation.
Test: protein stability index of a GFP-peptide fusion (GPS, HEK-293T) (PSI 1-6); higher = more stable
[1] = treatment: DMSO, c terminus: a fixed tail appended
[2] = treatment: MLN4924 1 uM, 8 h, c terminus: a fixed tail appended
[3] = treatment: DMSO, c terminus: native
[4] = treatment: MLN4924 1 uM, 8 h, c terminus: native
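Note: 24-mer peptide tiles fused after GFP, lentivirally expressed, FACS-sorted into six equal bins by GFP/DsRed ratio, decoded by Illumina sequencing, PSI is the read-weighted mean bin number.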

Sequence	protein stability index [1]	protein stability index [2]	protein stability index [3]	protein stability index [4]
SPEVLTPQLSPGSGTPQAGTPSPS [RTN2]	5.39 ± 0.31	5.45 ± 0.2	–	–
KNLFRLEMDMVVFRPEMKKHSWCL [N4BP2L1]	2.48 ± 0.48	2.4 ± 0.45	–	–
SDPQLIVQLRFCGRQPCGRFLRAY [TRADD]	2.35 ± 0.69	2.11 ± 0.27	–	–
REISETEAKALLKERQKKDNHNLI [TFE3]	5 ± 0.23	5.1 ± 0.16	–	–
QFIANLDQLNDGQDFAKDLLKTLY [PSD2]	2.21 ± 0.43	2.42 ± 0.28	–	–
LDSSLASLVGNLGISGTTTKKGDL [SNAP91]	4.76 ± 0.24	4.73 ± 0.19	–	–
VNRFGTYPALASKNGKKWEILNFN [ACSBG2]	2.81 ± 0.28	2.71 ± 0.49	–	–
ATLFFNPQESAILQLFHQDGTFSP [CLCN6]	2.25 ± 0.42	2.29 ± 0.074	–	–
NCSDFLESKGCFANTTPSGKSVSS [SPATS1]	4.15 ± 0.2	4.35 ± 0.17	–	–
CGRYINGHMLQHHGNSGHPLVLSY [HDAC6]	2.51 ± 0.29	2.65 ± 0.77	–	–
LRPTLLLTSLHHFMHSRNLYILGN [PNLIPRP1]	3.08 ± 0.31	3.13 ± 0.81	–	–
KAVMKTSVLLSWEIPENYNSAMPF [PTPRD]	2.26 ± 0.67	2.26 ± 0.43	–	–
CKKGDPKHGKRKRGRPRKLSKEYW [ELF3]	3.56 ± 0.13	3.85 ± 0.22	–	–
SSEEGWRLFKIDKEYLLKMATEE [SAT1]	–	–	2.78 ± 0.62	2.88 ± 0.68
GVSFHIDSAELEPGSQTAVKNSNR [FBXO34]	4.71 ± 0.26	5.03 ± 0.38	–	–
FHELQMQVTASDSGDPPLSSNVSL [PCDHGA10]	2.93 ± 0.49	3.38 ± 0.54	–	–
TQCSEEDQCKINKQIYNLIHLDPR [FEM1B]	3.48 ± 0.12	3.4 ± 0.28	–	–
GGGGGGLPISTVREVALLRRLEAF [CDK4]	3.19 ± 0.3	3.23 ± 0.34	–	–
SENVVNRMKEPSSPPPAPTSSTFG [CHCHD6]	5.04 ± 0.2	5.3 ± 0.13	–	–
PGPKGDPGEKSHWGEGLHQLREAL [EMID1]	3.32 ± 0.13	3.46 ± 0.52	–	–
PVPAFQSDGTDEPESKEPVEKEEE [SMG5]	5.57 ± 0.24	5.56 ± 0.24	–	–
TKAGHSLELIEPLIKFQVGLKKLN [VDR]	2.19 ± 0.38	2.42 ± 0.25	–	–
VSGGSRSLNMSRRDSESTRHDSET [PHTF1]	5.25 ± 0.26	5.5 ± 0.14	–	–

Sequence	protein stability index [1]	protein stability index [2]	protein stability index [3]	protein stability index [4]
KYPPDRECIYIIEAAPRQCIELYF [NETO1]	3.13 ± 0.77	2.7 ± 1.3	–	–
SPVVVEKSNSYPHQLYTSSSHHSH [KMT2E]	3.76 ± 0.1	3.82 ± 0.38	–	–
PLSAVYRICLGKFTFPGMSLDKRQ [TPRG1]	2.23 ± 0.46	2.24 ± 0.22	–	–
SNYFSMDSMEGKRSPYAGLQLGAA [TRIM29]	2.88 ± 0.3	2.99 ± 0.22	–	–
SLPLQDELAFAEDLVLDEEGARAA [ESRRA]	3.52 ± 0.68	4.31 ± 0.58	–	–
SQTEAHYSCQSKEILRYMKEFTLL [P2RY14]	2.21 ± 0.15	2.3 ± 0.23	–	–
LSVEADINGLRRVLDELTLARADL [KRT17]	2.66 ± 0.26	3.04 ± 0.43	–	–
TAEDSNDIYILPSDNSGQVSPPES [BCL2L13]	5.2 ± 0.26	5.21 ± 0.1	–	–
HLHLETFKAVLDGLDVLLAQEVRP [PRAME]	2.18 ± 0.43	1.98 ± 0.29	–	–
TPLLAASVTGHTNIVEYLIQEQPG [FEM1A]	3.39 ± 0.17	3.67 ± 0.32	–	–
PSVRSSKDGKLLAATLLLALLSCC [TNFSF13B]	2.73 ± 0.66	2.81 ± 0.85	–	–
EGSFNGSEKETMQFLNDRLASYLE [KRT33B]	3.43 ± 0.14	3.34 ± 0.21	–	–
TGTYQRAILQNHTDFKDKIVLDVG [CARM1]	3.34 ± 0.092	3.35 ± 0.27	–	–
PQKASAPAADPPRYTFAPSVSLNK [PDLIM7]	4.33 ± 0.19	4.32 ± 0.22	–	–
HALRKKQLKRQKRDYIHSLKLLNV [FAM9B]	2.6 ± 0.42	2.84 ± 0.27	–	–
EAAGGDHETESTSDKETDIDDRYG [CDS1]	5.6 ± 0.09	5.62 ± 0.22	–	–
KQLIYRVRRTDDTPVVLVGNKSDL [RIT1]	3.06 ± 0.26	3.23 ± 0.23	–	–
IGKWFDFKLFFNGRPGIVAWTLIN [DHCR7]	2.56 ± 0.42	2.46 ± 0.18	–	–
LRTSNGQPVKTAGEITQHNVTELL [DNAAF3]	4.14 ± 0.23	4.33 ± 0.17	–	–
YDGYRLRVEFPRSGRGTGRGGGGG [SRSF1]	3.81 ± 0.26	3.99 ± 0.25	–	–
GAHKDCQVAPLTHVFQRQKSELSD [TRIM55]	4.73 ± 0.34	4.83 ± 0.16	–	–
SQDLLPPPNPYPLPQEHSQIYHCT [TBX5]	4.02 ± 0.22	4.11 ± 0.22	–	–
HEEQLQRLKLLKDREVDAATSATS [FBF1]	5.18 ± 0.28	5.25 ± 0.24	–	–

Sequence	protein stability index [1]	protein stability index [2]	protein stability index [3]	protein stability index [4]
DCLQFYVNSTLKELRRLFLVQDLV [RTN1]	2.99 ± 0.61	2.81 ± 0.76	–	–
TDKLVTPGKYFSAAEYHAQRLKAV [IQUB]	3.4 ± 0.21	3.19 ± 0.31	–	–
LVPALRLPGRKLVSSAVSPSIIPQ [INTS4]	2.48 ± 0.31	2.46 ± 0.26	–	–
GWSTPPKCRSTISAEKCGPPPPID [CFHR2]	3.72 ± 0.38	3.93 ± 0.25	–	–
MNQTCCPQYTIRCRPLQFQPSKSH [ATE1]	2.06 ± 0.27	2.1 ± 0.25	–	–
ADAVNLTIPASLDLSPLLGFWQLP [PLAGL1]	2.28 ± 0.27	2.28 ± 0.23	–	–
FRNLVADRVLNYTSWSQHCPWEPQ [SPAG8]	2.21 ± 0.21	2.36 ± 0.23	–	–
TEMELLEVSQHIKMRMGGRVDFEE [CABP4]	4.11 ± 0.25	4.08 ± 0.099	–	–
EAASSSSTLVEVTLGEVPAAESPD [MAGEA3]	5.41 ± 0.15	5.49 ± 0.12	–	–
TTHFQSIPDAFWWAVVTMTTVGYG [KCNA4]	3.05 ± 0.88	2.96 ± 0.33	–	–
AEFQLVRDVVLCSLLNFLPEGVNK [TENT5C]	2.37 ± 0.7	3.07 ± 0.85	–	–
ITDNFCYFRHADPTWQNSIRHNLS [FOXJ1]	2.32 ± 0.13	2.43 ± 0.17	–	–
AVLGGFLYAVGGQDGVSCLNIVER [KLHL20]	2.16 ± 0.45	2.55 ± 0.47	–	–
LGRMGKHEQALFIYVHILKDTRMA [VPS39]	2.89 ± 0.71	2.98 ± 0.78	–	–
GGNPFAEPSELDNPFQDPAVIQHR [SCAMP3]	4.67 ± 0.14	4.98 ± 0.17	–	–
SKGMQDFNYLHTNCFEITLELSCD [CPN1]	2.97 ± 0.48	2.72 ± 0.58	–	–
PGARTRAGAARVARWRRLRLQQLR [FBXO33]	4.12 ± 0.28	4.51 ± 0.26	–	–
RDVAAWGRARATGGDLEEQQHAEG [DNAAF3]	5.43 ± 0.24	5.3 ± 0.086	–	–
GYWRVRLWNGDKYAATTTPFTPLH [TRIM39]	2.08 ± 0.42	2.35 ± 0.93	–	–
RSMVFKDVLLLGNDYIVPRHCPEL [HNF4A]	2.29 ± 0.14	2.23 ± 0.32	–	–
LLEATGGAAGRSHHLDEDEERERI [KCTD10]	5.25 ± 0.25	5.41 ± 0.35	–	–
AFHRKSHSLDLNISEKLTLLPTLY [RNF180]	2.34 ± 0.39	2.1 ± 0.34	–	–
DGDKNNDGRIDFDEFLKMMEGVQ [TNNC2]	–	–	4.63 ± 0.43	4.54 ± 0.42

Sequence	protein stability index [1]	protein stability index [2]	protein stability index [3]	protein stability index [4]
ARPSETFARFCKSQESALGNTVPA [DNAAF3]	3.12 ± 0.26	2.94 ± 0.26	–	–
IPLDLGCTQVTQDGDIPNIPAEEN [FAM189A2]	5.48 ± 0.12	5.48 ± 0.18	–	–
IIYMGSFMLMLLVLGIQVKCFHEI [CDS1]	3.57 ± 0.85	3.27 ± 0.34	–	–
HDPLYGKLFSTYLRPPHTSRGTSQ [LPCAT4]	3.27 ± 0.34	3.76 ± 0.21	–	–
AGSSHTPSSQSSSGGGRDSSSSIL [ELOA2]	4.82 ± 0.26	4.78 ± 0.14	–	–
FYDKQLKVLLSGATFLVTFGNSEK [ZFYVE21]	2.45 ± 0.67	2.54 ± 0.54	–	–
EDEGVDLSEGSSNEDEDLGPCEGP [SPANXN3]	5.39 ± 0.44	5.41 ± 0.23	–	–
LTLSGIKEDNSLLNQGFLQAKPEK [MYBL2]	4.53 ± 0.39	4.61 ± 0.099	–	–
GGACPAFLPSLRPPPLTSPSHGSL [NCF4]	3.59 ± 0.092	3.71 ± 0.28	–	–
GKPPTAHLDRTSVSSLSEVEEVDM [ELOA2]	5.51 ± 0.11	5.41 ± 0.29	–	–
TQLFIGGVTGWCTGFIFQKVGKLA [FUNDC2]	2.33 ± 0.39	2.32 ± 0.28	–	–
AQALGYYYVLEPRVVDGTPCSPDS [ADAMTS4]	2.74 ± 0.52	2.7 ± 0.38	–	–
GVNTVFHCASPPPSSNNKELFYRV [NSDHL]	2.53 ± 0.23	2.4 ± 0.1	–	–
LSEEERSEKAMLRSRIEEQSQLIC [CCDC89]	4.53 ± 0.3	4.62 ± 0.11	–	–
VTEHPLELIRVEVEILDLNDNSPS [PCDHGC5]	2.92 ± 0.29	3 ± 0.41	–	–
ALCMLAQSSPSFAEKCLDFLVDMF [INTS4]	1.86 ± 0.1	2.35 ± 0.064	–	–
RRMCFVDPVRQCAECALVSLKEAE [ZFYVE21]	2.98 ± 0.25	3.01 ± 0.64	–	–
LVSPSNNSKEDAFSGTDWMLEKMD [ATF4]	4.66 ± 0.26	4.64 ± 0.23	–	–
TLREITDQEHNVAALKQAIKDKEA [TEKT4]	4.92 ± 0.27	4.88 ± 0.26	–	–
KINAWDLYYYMTQTEELKYSIDQE [NLN]	2.34 ± 0.3	2.19 ± 0.35	–	–

Reference: the supplement of paper PMC10567573
